Laboratory results reported in the nanobody polyreactivity screen of Harvey et al. (2022).

Test: yeast display, Sf9 membrane polyspecificity reagent, FACS + sequencing; frameworks hold sequencing errors
Summary of the method: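 Synthetic nanobody libraries on Saccharomyces cerevisiae BJ5465 were galactose-induced for 36–48 hours, stained 1 hour at 4 °C with 10% biotinylated, detergent-solubilized Sf9 membrane reagent and enriched on streptavidin microbeads. FACS then separated cells into low and high (top ~1%) gates by anti-HA (expression) and streptavidin (reagent binding) fluorescence. Genes were colony-PCR amplified, MiSeq 2 × 250 sequenced and CDR-length filtered. A clone's polyreactivity label is that of its gate of origin.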

Sequence | polyreactivity (PSR sort gate)
QVQLVESGGGLVHAGGSLRLSCAASGFTFTFYAMGWYRQAPGKERELVATISSNGGSTYYADSVKGRFTISRDNAKNTVYLQMNSLKPEDTAVYYCAAITSYYGYYYWGQGTQVTVSS | high polyreactivity
QVQLVETGGGLVKAGGSLRLSCGASGFIFTYNAMGWYRQAPGKERELVAAISGSGGRTYYADSVKGRFTISRDNAKNTVYLQMNSLKPEDTAVYYWNRDPKSLSYGSRGFGYWGLGTQVTVSS | high polyreactivity
QVQLVESGGGLVQAGGSLRLSCAASGRTFYRNTMGWYRQAPGKEREFVAAISATAGRTYYADSVKGRFTISRDNAKNTVYLQMNSLKPEDTAVYYCAAVPLRNRWPNSWPALDYWGQGTQVTVSS | high polyreactivity
QVQLVESGGCLVQAGGTLRLSCAASGRTFIVYSMGWYRPAPGKERELVAAITTSVGRTYYADSVKGRFTISRDNAKNTVFLQMISLKPEDTAVYYCADDLLDGYSEYSYWGQGTQVTVSS | low polyreactivity
QVQLVESGGGLVQAGGILRLSCAASGSIFTRYAMGWYRQAPGKEREFVAAITWRGGRTSYADSVKGRFTISRDKAKNTVYLQMNSLKPEDTAVYYCNRRYPYRTYDYWGQGTQVTVSS | high polyreactivity
QVQLVESGGGLVQAGGSLRLSCAASGRIFYVYTMGWYRQAPGKERELVAAITWRGGSTYYADSVKGRFTISRDNAKNTVYLQMNSLKPEDTAVYYCATAQWVGYWDDYWGQGTQVTVSS | high polyreactivity
QVQLVESGGGLVQAGGSLRLSCSASGSIFSENTMGGYRQAPGKKRELVADITSGGSTNYADSVKGRFTISRDNAKNTVYLQMNSLKPEDTAVYYCAADYNGEYDYWGQGTQVTVSS | low polyreactivity
QVQLVESGGGLVQAGGSLRLSCAASGFIFTRNVMGWNRQAPGKERELVAAISSGGRTYYADSVKGRFTISRDNAKKTVYFQMISLKPEDTAVYYCNAGNRGVYRYDYWGQGTQVTVSS | high polyreactivity
QVQLVESGGGLVQAGGSLRLSCAASGSIFYNYAMGWSRQAPGKERELVAAITANTGSTYYADSVKGRFTISRVNAKNTVYLQMNSLKPEDTAVYYCATTWTIRRYRYSPRLVDYWGQGTQVTVSS | low polyreactivity
QVQLVESGGGLVQAGGTLRLSCAASGLTFYRYAMGWYRQAPGKERELVATIRSGDGTYYADSVKGRFTISRDNAKNTVYLQMNSLKPEDTAVYYCAAKKVYRVYGRYEYWGQGTQVTVSS | high polyreactivity
QVHLVESGGGLVQAGGSLRLSCAASGRIFRYNAMGWYRQAPVKESELVAAISSIGGRTYYADSVKGRFTISRDNAKNTVYLQMNSLQPEDTAVYNCAALSYYVDGEYDYWGQGTQVTVSS | high polyreactivity
QVQLVESGGGLVQAGGSLRLSCAASGRIFHYAMGWYRQAPGKERELVAGISKRGGSTYYADSVKGRFTISRDNAKNTVYLQMNSLKPEDTAVYYCAAGRAYDGTKHDYWGQGTQVTVSS | high polyreactivity
QVQLVESGGGLVQAGGSLRLRCAASGRTFDTYAMGWYRQAPWKERELVASITYRGGSTYYADSVKGRFTITRDNAKNTVYLQMNSLKPEDTAVYYCNAKVKRNKRWRGYWGQGTQVTVSS | high polyreactivity
QVQLVESAGGLVQAGGSLSLSCDASGNTFLGYAMGWYRQAPGKERELVAAISKRGGSTYYADSVKGRFTISRDNAKNTVYLQMNSLQPEDTAVYYCNAVPPRDNGSWGQGTQVTVSS | high polyreactivity
QVQLVESGGGLVQAGGSLRLSCAASGRIFSLYAMGWYRQAPGNERELVAAISKRGGSTYYADSVKGRFTISRDNAKNTVYLHMNSLKPEDTAVYYCATQLPFRKPWHDYWGQGTQVTVSS | high polyreactivity
QVQLVESGGGLVQAGGSLRLSCAASGLTFFYYAMGWYRQAPGKERELVAGISRSGGSTYYADSVKGRFTISRDNAKNTVYLQMKSLKPEDTAVYYCAKRTLVASYIYREGEYWGQGTQVTVSS | high polyreactivity

Sequence | polyreactivity (PSR sort gate)
QVQLVESGGGLVQAGGSLRLRCAASGYIFRYYAMGWYRQAPGKEREFVAAISRNGGSTYYADSVKGRFTISRDKAKNTVYLQMNSLKPEDTAVYNCNVVGHDDKYDYWGQGTQVTVSS | high polyreactivity
QVQLVESGGGLVQAGGSLRLSCAASGFIFGLNALGWYRPAPGKERELDAAIRSASSTNYADSVKGRFTISRDNAKNTVFLQMNSLKPEDTAVYYCAAEYVTYQQGFWGYDYWGQGTQVTVSS | low polyreactivity
QVQLVESGGGLVQAGGSLRLSCAASGFIFYNYAMGWYRQAPGKERELVAAISKSGDSTYYADSVKGRFTISRDNAKNTVYLQMNSLKPEDTAVYYCNKEIVWHLWYESWGQGTQVTVSS | high polyreactivity
QVQLVESGGGLVPAGGSLPLSCAASGSTFSGHTMGWYRQAPGQDWELVADINWSSGSTYYADSVKGRFTISRDNAKNNVYLQMHSLKPEDTALLYCAAVEPFSDFDYWGQGTQVTLSS | low polyreactivity
QVQLVESRGGLVQAGGSLPLSCAPSGRIFVRYAMGWYRQAPGKERELVAAISKSGGTTYYADSVKGRFTISRDNAKNTVYLQMNSLKPEDTAVYYCYALVRRRPGYIRYDYWGQGSQVTVSS | low polyreactivity
QVQLVESGGGLVQAGGSLRLSCAASGRTFVYNGMGSYRQAPGKERELVAAISGSGGSTYYADSVKGRFTISRDNAKNTVYLQMNSLKPEDTAVYYCATRQGYRLYYWGQGTQVTVSS | high polyreactivity
QFQLVESVRGLFQAGGSLRLSCAASGSIFHPYGMGWYREDPVKERELVAAISSSGGDTYYADSVKGRFTISRDNAKNTVYLQMNSLKPEDTAVYYCATDHLDSYSVPGIGKHDYWGQGTQVTVSS | low polyreactivity
QVQLVESGGGLVQAGGSLRLSCAASGRIFPAYAMGWYRQAPWKERELVASIRRGGITYADSVKGRFTISRDNAKNTVYLQMNSLKPEDSAVYYCNADYRGWGYHMYYWGQGTQVTVSS | low polyreactivity
QVQLVESGGGLVQAGGSLRLSCAASGFIFFYYAMGWYRQAPGKERELVAAISASGGSTYYADSVKGRFTISRDNAKNTVYLQLNSLKPEDTAVYYCAARYRKAESARWEYGYWGQGTQVTVSS | high polyreactivity
QVQLVESGGGLVQAGGSLRLSCAASGYIFGPYAMGWYRQAPGKERELVAAITWRGGRTYADSVKGRFTISRDNAKNTVYLQMNSLKPEDTAVYFCATETGYSPFVYYSGRYGYWGQGTQVNVSS | high polyreactivity
QVQLVESGGGLVQAGGSLRLSCAASGRIFVENAMGWYRQAPRKERELVAAITSRGGSTYYADSVKGRFTISRDNAKNTVYLQMNSLKPEDTAVYYCNAGKYSRFLYDHNYWGQGTQVTVSS | high polyreactivity
QVQLVESGGGLVQAGGSLRLSCAASGIIFGPYVMGWYRQAPGKERELVATISRTGDTYYADSVKGRFTISRDNAKNTVYLQMNSLKPEDTAVYYCAVEWSAHKYYYWGQGTQVTVSS | low polyreactivity
QVQLVESGGGLVQAGGSLRLSCAASVRTFGQNTMGWYIQAPGKEREFVAAIDFNGGSTYYADSVKGRFTISRDNAKNTVYLQMNSLKPEDTAVYYCAADIYFYYYGSYDYWGQGTQVTVSS | low polyreactivity
QVQLVESGGGLVQAGGSLRLSCAASGRIFYYNGMGWYRQAPGKERELVAAIRWSGGSTRYADSVKGRFTISRDNAKNTVYLQMNSLKPEDTAVYYCAADGFYRWYPYKRYQFYYWGQGTQVTVSS | high polyreactivity
QVQLVESGGGLVQAGGSLRLRCAATGSTFVYNAMGWYRPAPGKVRELVARITRSGGSTYYADSVKGRFTISRDNAKNTVYLQMKSLKPEDTAVYYCAKEREGHSVRIGPRYNYWGQGSQVTVSS | low polyreactivity
QVQLVESGGGLVQAGGSLRLSCAASGSTFSANAMGWYRQAPGKERELVAAITYRGGNTYYADSVKGRFTISRDNAKNTVYLQMNSLKPEDTAVYYCNRDLRVRYRRLKYGYWGQGTQVTVSS | low polyreactivity
